{"source": "the supplement of paper PMC10567573", "parents": {"B1": {"name": "OAS1 (parent)", "chain": "LQLGEGVEFDVLPAFDALGQLTGG"}, "B2": {"name": "SLC19A2 (parent)", "chain": "FHHIPSTCQRVNGIKVQNGGIVTD"}}, "data": [{"variants_of": "B1", "assay": "protein stability index of a GFP-peptide fusion (GPS, HEK-293T) (PSI 1-6); higher = more stable", "details": "c terminus: a fixed tail appended", "values": [{"variant": "LQLGEGVEFDVLPAFDALGDLTGG", "protein stability index": 2.65}, {"variant": "LQLGEGVEFDVLPAFDALGFLTGG", "protein stability index": 1.79}, {"variant": "LQLGEGVEFDVLPAFDALGELTGG", "protein stability index": 2.02}, {"variant": "LQLGEGVEFDVLPAFDALGHLTGG", "protein stability index": 2.94}, {"variant": "YQLGEGVEFDVLPAFDALGQLTGG", "protein stability index": 2.31}, {"variant": "EQLGEGVEFDVLPAFDALGQLTGG", "protein stability index": 4.58}, {"variant": "KQLGEGVEFDVLPAFDALGQLTGG", "protein stability index": 3.67}, {"variant": "VQLGEGVEFDVLPAFDALGQLTGG", "protein stability index": 2.71}, {"variant": "LQLGEGVEFDVLPAFDALGQLTAG", "protein stability index": 2.33}, {"variant": "LQLGEGVEFDVLPAFDALGQLTPG", "protein stability index": 2.03}, {"variant": "LQLGEGVEFDVLPAFDALGQLTQG", "protein stability index": 2.58}, {"variant": "LQLGEGVEFDVLPAFDALGQLTEG", "protein stability index": 2.26}, {"variant": "LQLGEGVEFDVNPAFDALGQLTGG", "protein stability index": 2.99}, {"variant": "LQLGEGVEFDVEPAFDALGQLTGG", "protein stability index": 3.98}, {"variant": "LQLGAGVEFDVLPAFDALGQLTGG", "protein stability index": 1.99}, {"variant": "LQLVEGVEFDVLPAFDALGQLTGG", "protein stability index": 1.7}, {"variant": "LQLMEGVEFDVLPAFDALGQLTGG", "protein stability index": 2.36}, {"variant": "LQLHEGVEFDVLPAFDALGQLTGG", "protein stability index": 2.25}, {"variant": "LQLGEGVEFDMLPAFDALGQLTGG", "protein stability index": 2.33}, {"variant": "LQLGEGVEFDFLPAFDALGQLTGG", "protein stability index": 1.59}, {"variant": "LQLGEGVEFDHLPAFDALGQLTGG", "protein stability index": 2.83}, {"variant": "LQLGEGVEFDNLPAFDALGQLTGG", "protein stability index": 3.33}, {"variant": "LQLGEGVEFDWLPAFDALGQLTGG", "protein stability index": 1.16}, {"variant": "LQVGEGVEFDVLPAFDALGQLTGG", "protein stability index": 2.34}, {"variant": "LQLGEGVEFDVLHAFDALGQLTGG", "protein stability index": 2.21}, {"variant": "LQLGEGVEFDVLPAGDALGQLTGG", "protein stability index": 3.56}, {"variant": "LQLGEGVEFDVLPGFDALGQLTGG", "protein stability index": 1.88}, {"variant": "LQLGEGVEFDVLPQFDALGQLTGG", "protein stability index": 2.46}, {"variant": "LQLGEGVEFDVLPAFDAMGQLTGG", "protein stability index": 1.66}, {"variant": "LQLGEGVEFDVLPAFDASGQLTGG", "protein stability index": 2.38}, {"variant": "LQLGEGVEFDVLPAFDAWGQLTGG", "protein stability index": 3.14}, {"variant": "LQLGEGVEFDVLPAFDAQGQLTGG", "protein stability index": 2.36}, {"variant": "LQLGEGVEFDVLPAFDAIGQLTGG", "protein stability index": 1.26}, {"variant": "LQLGEGVEFDVLPAFDAAGQLTGG", "protein stability index": 3.35}, {"variant": "LQLGEGWEFDVLPAFDALGQLTGG", "protein stability index": 2.81}, {"variant": "LQLGEGNEFDVLPAFDALGQLTGG", "protein stability index": 2.46}, {"variant": "LQLGEGCEFDVLPAFDALGQLTGG", "protein stability index": 1.34}, {"variant": "LQLGEGVEFDVLPAFDALYQLTGG", "protein stability index": 1.84}, {"variant": "LQLGEGVEFDVLPAFDALGQPTGG", "protein stability index": 2.9}, {"variant": "LQLGEGVEFDVLPAFDCLGQLTGG", "protein stability index": 2.01}, {"variant": "LQLGEHVEFDVLPAFDALGQLTGG", "protein stability index": 2.8}, {"variant": "LQLGESVEFDVLPAFDALGQLTGG", "protein stability index": 2.39}, {"variant": "LQLGENVEFDVLPAFDALGQLTGG", "protein stability index": 2.25}, {"variant": "LQLGEGVTFDVLPAFDALGQLTGG", "protein stability index": 1.42}, {"variant": "LQLGEGVPFDVLPAFDALGQLTGG", "protein stability index": 2.09}, {"variant": "LQLGEGVEFCVLPAFDALGQLTGG", "protein stability index": 2.3}, {"variant": "LQLGEGVEFNVLPAFDALGQLTGG", "protein stability index": 3}, {"variant": "LQLGEGVEFSVLPAFDALGQLTGG", "protein stability index": 2}, {"variant": "LQLGEGVEFDVLPAFDALGQLCGG", "protein stability index": 2.22}]}, {"variants_of": "B2", "assay": "protein stability index of a GFP-peptide fusion (GPS, HEK-293T) (PSI 1-6); higher = more stable", "details": "c terminus: a fixed tail appended", "values": [{"variant": "FHHIPSTCQRVIGIKVQNGGIVTD", "protein stability index": 1.42}, {"variant": "FHHIPSTCQRVHGIKVQNGGIVTD", "protein stability index": 1.89}, {"variant": "FHHIPSTCQRVKGIKVQNGGIVTD", "protein stability index": 2.22}, {"variant": "FHHIPSTCQRVWGIKVQNGGIVTD", "protein stability index": 1.01}, {"variant": "FHHIPSTCQRVNGIKVQNGGIVVD", "protein stability index": 1.67}, {"variant": "FHHIPSTCQRVNGIKVQNGGIVND", "protein stability index": 1.86}, {"variant": "FHHIPSTCQRVNGIKVQNGGIVPD", "protein stability index": 1.89}, {"variant": "FHHIPSTCQRVNGIKVQNGGIVDD", "protein stability index": 2.53}, {"variant": "FHHIPSTCQRVNGIKVQNGGIVKD", "protein stability index": 2.11}, {"variant": "FHHIPSTCQRVNGIKVQNGGIVFD", "protein stability index": 1.81}, {"variant": "FHHIPSTCQRVNGIKVQNGGIVED", "protein stability index": 1.85}, {"variant": "FHHIPSTCQRVNGIKVQNGGIVAD", "protein stability index": 2.4}, {"variant": "FHHIPSTCQRVNGIKVQNGGIVYD", "protein stability index": 1.75}, {"variant": "FHHIPSTCQRVNGIKVQNGGIVRD", "protein stability index": 4.73}, {"variant": "FHHIPSTCQRVNGIKVQNGGIVHD", "protein stability index": 3.31}, {"variant": "FHHNPSTCQRVNGIKVQNGGIVTD", "protein stability index": 2.07}, {"variant": "FHHPPSTCQRVNGIKVQNGGIVTD", "protein stability index": 2.37}, {"variant": "FHHCPSTCQRVNGIKVQNGGIVTD", "protein stability index": 1.67}, {"variant": "FHHEPSTCQRVNGIKVQNGGIVTD", "protein stability index": 2.77}, {"variant": "FHHLPSTCQRVNGIKVQNGGIVTD", "protein stability index": 2.37}, {"variant": "FHHIPRTCQRVNGIKVQNGGIVTD", "protein stability index": 1.9}, {"variant": "FHHIPYTCQRVNGIKVQNGGIVTD", "protein stability index": 2.01}, {"variant": "FHHIPPTCQRVNGIKVQNGGIVTD", "protein stability index": 1.82}, {"variant": "FHHIPLTCQRVNGIKVQNGGIVTD", "protein stability index": 2.36}, {"variant": "FHHIPNTCQRVNGIKVQNGGIVTD", "protein stability index": 1.6}, {"variant": "FHHIPDTCQRVNGIKVQNGGIVTD", "protein stability index": 2.28}, {"variant": "FHHIPSTCQRVNGIMVQNGGIVTD", "protein stability index": 1.64}, {"variant": "FHHIPSTCQRVNGIGVQNGGIVTD", "protein stability index": 2.38}, {"variant": "FHHIPSTCQRVNGIYVQNGGIVTD", "protein stability index": 2.47}, {"variant": "FHHIPSTCQRVNGIPVQNGGIVTD", "protein stability index": 2.33}, {"variant": "FHHIPSTCQRVNGILVQNGGIVTD", "protein stability index": 2.15}, {"variant": "FHHIGSTCQRVNGIKVQNGGIVTD", "protein stability index": 2.12}, {"variant": "FHHIISTCQRVNGIKVQNGGIVTD", "protein stability index": 1.97}, {"variant": "FHHILSTCQRVNGIKVQNGGIVTD", "protein stability index": 1.86}, {"variant": "FHHIPSTCQRVNGIKVGNGGIVTD", "protein stability index": 1.87}, {"variant": "FHHIPSTCQRVNGIKVCNGGIVTD", "protein stability index": 2.37}, {"variant": "FHHIPSTCQRVNGIKVHNGGIVTD", "protein stability index": 2.08}, {"variant": "FHHIPSTCQRVNGIKVLNGGIVTD", "protein stability index": 1.34}, {"variant": "FHHIPSTCQRVNGIKVYNGGIVTD", "protein stability index": 2.31}, {"variant": "FHHIPSTCQRVNGIKVWNGGIVTD", "protein stability index": 1.62}, {"variant": "FHHIPSTCQRVNGIKVENGGIVTD", "protein stability index": 2.28}, {"variant": "FHHIPSTCQRVNGIKVSNGGIVTD", "protein stability index": 2.72}, {"variant": "FHHIPSTCQRVNGIKVINGGIVTD", "protein stability index": 1.6}, {"variant": "FHHIPSTCQRVNGIKVANGGIVTD", "protein stability index": 1.89}, {"variant": "FHHIPSTCQRFNGIKVQNGGIVTD", "protein stability index": 1.81}]}]}
